The test concerns the target human recombinant ICAM-1 (D1-D2-Fc), Alexa Fluor 555 conjugate (human) (UniProt P05362). The test is described as follows: FRET or BRET; steady-state, in solution competition screening, 96-well plate; Alexa Fluor 488-LFA-1 (100 nM) mixed with peptide (0.02, 0.2, 2, 20 µM), then incubated with Alexa Fluor 555-D1-D2-Fc (100 nM) for 30 min in the dark; PBS pH 7.4, 1 mM EGTA, 2 mM Mg2+; inhibition efficiency from the FRET efficiency. In general terms: In BRET a luciferase serves as donor, and the signal depends on an acceptor being close.

human recombinant ICAM-1 (D1-D2-Fc), Alexa Fluor 555 conjugate (human), sequence (P05362 28-532): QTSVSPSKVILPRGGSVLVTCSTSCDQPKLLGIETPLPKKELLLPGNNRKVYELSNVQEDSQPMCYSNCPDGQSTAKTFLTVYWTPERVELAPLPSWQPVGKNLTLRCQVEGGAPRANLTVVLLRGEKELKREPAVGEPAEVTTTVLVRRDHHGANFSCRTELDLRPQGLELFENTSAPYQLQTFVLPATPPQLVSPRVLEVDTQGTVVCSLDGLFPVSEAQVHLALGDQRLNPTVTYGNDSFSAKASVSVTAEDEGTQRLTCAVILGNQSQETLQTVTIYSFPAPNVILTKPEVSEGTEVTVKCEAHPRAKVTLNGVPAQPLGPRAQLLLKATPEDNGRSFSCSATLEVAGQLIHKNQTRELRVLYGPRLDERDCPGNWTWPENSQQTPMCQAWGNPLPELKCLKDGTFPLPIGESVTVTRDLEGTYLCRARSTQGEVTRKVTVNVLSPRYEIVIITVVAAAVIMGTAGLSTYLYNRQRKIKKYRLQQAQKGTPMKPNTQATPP

Consider APLFYGEQRG [CD11a(456–465) peptide], for which the inhibition efficiency of the LFA-1/D1-D2-Fc interaction at 0.02 µM peptide amounted to 12.2%, the inhibition efficiency of the LFA-1/D1-D2-Fc interaction at 0.2 µM peptide came to 20.3%, the inhibition efficiency of the LFA-1/D1-D2-Fc interaction at 2 µM peptide was 36.5% and the inhibition efficiency of the LFA-1/D1-D2-Fc interaction at 20 µM peptide stood at 51.4%.
Take ITDGEATDSGNIDAAKDIIRYIIGI [CD11a(237–261) peptide]: the inhibition efficiency of the LFA-1/D1-D2-Fc interaction at 0.02 µM peptide worked out at 40.8%, the inhibition efficiency of the LFA-1/D1-D2-Fc interaction at 0.2 µM peptide came to 47%, the inhibition efficiency of the LFA-1/D1-D2-Fc interaction at 2 µM peptide worked out at 53.2% and the inhibition efficiency of the LFA-1/D1-D2-Fc interaction at 20 µM peptide came to 65.1%.

The values are drawn from paper PMC4102529, “FRET Based Quantification and Screening Technology Platform for the Interactions of Leukocyte Function-Associated Antigen-1 (LFA-1) with InterCellular Adhesion Molecule-1 (ICAM-1)” (PLoS ONE, 2014).
